Reference: publication PMC8211829 (Biochimica et biophysica acta. Biomembranes, 2021)

Biological target: the molecule itself
Assay: cross-linking

Row | Protein | binding result
1 | apoE(201–299) single Cys variant S223C (domain or fragment) QPLQERAQAWGERLRARMEEMGCRTRDRLDEVKEQVAEVRAKLEEQAQQIRLQAEAFQARLKSWFEPLVEDMQRQWAGLVEKVQAAVGTSAAPVPSDNH | binds
2 | apoE(201–299) single Cys variant at E255 (domain or fragment) QPLQERAQAWGERLRARMEEMGSRTRDRLDEVKEQVAEVRAKLEEQAQQIRLQACAFQARLKSWFEPLVEDMQRQWAGLVEKVQAAVGTSAAPVPSDNH | binds
